Experiment: yeast display, Sf9 membrane polyspecificity reagent, FACS + sequencing; frameworks hold sequencing errors
Method in brief: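 Using colony PCR, genes from sorted yeast display clones were amplified, then sequenced on MiSeq at 2 × 250 and filtered by CDR length. The clones had been stained with 10% biotinylated, detergent-solubilized Sf9 membrane reagent for 1 hour at 4 °C and sorted by FACS into low and high (top ~1%) gates on anti-HA and streptavidin fluorescence. Polyreactivity labels come from the gate of origin.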

Row | Sequence | polyreactivity (PSR sort gate)
1 | QVQLVESGGGLVQAGGSLRLSCAASGSIFGGNAMGWYRQAPGKERELVAAITYSGGSTYYADSVKGRFTISRDNAKNTVYLQMNSLKPEDTAVYYCAASASVRGGGADQYVIAFDYWGQGTQVTVSS | low polyreactivity
2 | QVQLEESGGGLVQAGGSLRLSCAASGLTFPSNDMGCYRQAPGKERELVAASSKRGGRTYYADYVKGRFTISRDNAKNTVYLQMNSLKPEDTAVYYCATPYAFPGTVQYAGYNYWGQGTQVTVSS | high polyreactivity
3 | QVQLVESGGGLVQAGGSLRLSCAASGSILTDYAMGWYRQAPGKERELVATISNGGSTNYADSVKGRFTISRDNAKNTVYLQMNSLKPEDTAVYYCNAEPGVPSWELDYWGQGTQVTVSS | low polyreactivity
4 | QVQLVESGGGLVQAGGSLRLSCAASGRTFPRYAMGWYRPAAGKVWELVAAISVRAGITYYADSVKGRFTISRDNAKNTVYFQMNSLKPEDTAVYYCAKDHWTTSYDEGDYWGQGTQETVSS | low polyreactivity
5 | KVQLVESGGGLVQAGGSLRLSCAASGLNFGRYAMGWYRQAPGKERELVAAISSSGVRTYYADSVKGRFTISRHNAKNTVYLQMNSLKPADTAVYYCAAAYWSSREDTVIKRYYWGQGTQVTVSS | high polyreactivity
6 | QVQLVESGGGLVQAGGSLRLSCAASGIIFLYYAMGWYRQAPGKERELVAAISRSGGRTFYADSVKGRFTISRDNAKNTVFLQMNSLKAEDTAVYYCAADALIYYKGSPDYYWGQGTQVTVSS | high polyreactivity
7 | QVQLVESGGGLVQAGGSLRLSCAASGSTFASNMGWYRQAPGKERELVAGIRSSGSTYYADSVKGRFTISRDNAKNTVYLQMNSLKPEDTAVYSCNKGDYRTYPYDYWGQGTQVTVSS | low polyreactivity
8 | QVHLVESGGGLVQAGGSLRLSCAASGSTFSGYTMGWYRQAPGKEREFVAAISSRGGSTYYADSVKGRFTISRDNAKNSVYLQMNSVNPEDTAVYYCAAKVWARVDGRQFRLEYWGQGTQVTVSS | high polyreactivity
9 | QVQLVESGGGLVQAGGSLRLSCAASGSISVRNVMGWYRQAPGKERELVATIRRTGGSTSYADSVKGRFTISRDNAKNTVYVQMNSLKPEDTAVYYCAAVGYTTYRRYDYWGQGTQVTVSS | low polyreactivity
10 | QVQLVETGGGLVQEGGSLRISCAASGSLFDVYAMGWYRQAPGKERELVAAISSSGSTYYADSVKGRFTISRDNAKNTVYLQMNSLKTEDTAVYYCAADQADDDDYYYWGQGTQVTVSS | low polyreactivity
11 | QVQLVESGGGIVQAGGSLRLTCDASGFTFVINDMGRYRQARGKERELVADITSGGDTYYADSVKGRFTISRDNAKNSVYFHRNSLKPEDTAVYFCAADIYPDWIYLLYGYWGQGTQLTVSS | low polyreactivity
12 | QVQLVESGGGLVQAGGSLRLSCADSGITFFIYAMGWYIQAPGKERELVAAISGRSGSTYYADSVKGRFTISRDNAKNTVYLQMNSLKPEDTAVYYCAAGLTFFSYSLDYWGQGTQVTVSS | low polyreactivity
13 | QVQLVESGGGLVQAGGSLRLSCAASGRTFGYYTMGWYRQAPGKERELVATITSSGGSTYYADSVKGRFTISRDNAKNTVYLQMNSLKPEDTAVYYCAARRKQGAYDYWGQGTQVTVSS | high polyreactivity
14 | QVQLVESGGGLVQAGGSLRLSCAASGSILTHYAMGRYRPAPGKERELVAAITWRGGSTYYADSVKGRFTISRDNAKNTVYLQMNSLKTEDTAVYYCAADLSYPDWSRYQWDMDYWGQGTQLTVSS | low polyreactivity
15 | QVQLVESGGGLVQAGGSLRLSCAASGRIFYRNAMGWYRPAPGKERELVAAISGSGGSTSYADSVKGRFTISRDNAKNTVYLQMNSLKPEDTAVYYCAAYKLYWGQGTQVTVSS | high polyreactivity
16 | QVQLVESGGGLVQAGGSLRLSCAASGRTFEVYTMGWYRQAPGKERELVARIRRGASTNYADSVKGRFTISRDNAKNTVYLQMNSLKPEDTAVYYCNARYTAVAVRWTWPYETQADDYWGQGTQVTVSS | low polyreactivity
17 | QVQLVESGGGLVQAGGSLRLSCAASGRTFTQYAMGWYRQAPGKEREFVAAINFSGSRTYYADSVKGRFTISRDNAKNTVYLQMNSLKPEDTAVYYCNKRGSVYTSSQRQHDYWGQGTQVTVSS | low polyreactivity
18 | QVQLVESGGGLVQAGGSLRLSCAASGYIFSHYAMAWYRQAPGKERELVAAISRNGGSTYYADSVKGRFTISRDNAKNTVYLQMNSLKPEDTSVYYCAVGWKYRYGYWGQGTQVTVSS | high polyreactivity
19 | QVQLVESGGGLVQAGGSLRLSCAASGITFINYDMGWYRQAPGKERELVAAISQIGTSTYYADSVKGRFTISRDNAKNTVYLQMNSLKPEDTAVYYCNARYISTGFRYNYWGQGTQVTVSS | high polyreactivity
20 | QVQLVESGRGLVQAGGTLRLSCAASGSTFGSYAMGWYRQAPGKEREFVATISRSGGRTYYAASVKGRFTISRDNAKNTVYFQMNSLKPEDTAVYYCATDRRYWIGYDYWGPGTQVTVSS | high polyreactivity
21 | QVQLVESGGGLVQAGGSLRLSCAASGRIFYTNGMAWYRQAPGKERELVATIRSGDGRTYYADSVKGRFTISRDNAKNTVYLQMNSLKPEDTAVYYCNASRVVYRQAYLYGFDYWGQGTQVTVSS | low polyreactivity
22 | QVQLVESGGGLVQAGGSLRLSCAASGSTFKAYAMGWYRQAPGKERELVAAITRRGTSTYYADSVKGRFTISRDNAKNTVYLQMNSLNPEDTAVYYCNAKYVSDRSSAVSFDYWGQGTQVTVSS | low polyreactivity

Row | Sequence | polyreactivity (PSR sort gate)
23 | QVQLVDSGGGLVQAGGSLRLSCAASGSTFYGYAMGWYRQAPGKERELVAAITSSGTRTYYADSVKGRITISRDNAKNSVYLQMNSLKPEDTAVYYCAADAPNFGLYRDKDYDYWGQGTQVTVSS | high polyreactivity
24 | QVQLVESGGGLVQAGGSLRLSCAASGGIYYYAMGWYRPAPGKERELVSAISSGGGNTNYADSVKGRFTISRDNAKNTVYLQMISLKPEDTAVYYCYADRAVVLSTTVWGEYDYWGQGTQVNVSS | low polyreactivity
25 | QVQLVESGGGLVQAGGSLRLSCAASGRIFYYYAMGWYRQAPGKERELVAAISSIDGTTYYADSVKGRFTISRDNAKNTVYLQMNSLKPEDTAVYYCAAEDPADQYDYWGQGTQVTVSS | high polyreactivity
26 | QVQLVESGGGLVQAGGSHRLSCAASGSTFLRYAMGWYRQAPGKERELVAAITASGGSTYYADSVKGRFTISRDNAKNTVYLQMNCLKAEDTAVYYCAADGRFIGKNSHDLWIYGYYYWGQGTQVTVSS | low polyreactivity
27 | QVQLVESGGGLVQAGGSLRLSCAASGSIFRYYVMGWYRQAPGKERELVASISYSVGRTYYADSVKGRFTISRDNAKNTVYLQMNSLKPEVTAVYYCAADRYWPYYSAYYTSYRMDYWGKGTQVTVSS | high polyreactivity
28 | QVQLVETGGGLVQAGGSLRLSCAASGSIFYTNAMGWYRQAPGKERELVAVITASGGSTYYADSVKGRFTISRDNAKNTVYLQMNSLKPEDTAVYYCAADPVFNYDYWGQGTQVTVSS | low polyreactivity
29 | QDQLVESGGLLVQAGGSLRLSCAAYGSTIGVYAMGWYRQAPRKERELVAAISSSTGSTYYADSVKGRFTISRDNAKNTVYLQMIRQKPEDTAVFYCAAAGYGKVRGDYWGQGTQVSVSS | low polyreactivity
30 | QVQLVESGGGLVQAGGSLRLSCAASGRIFPAYVMGWYRQAHGKERELVATIDNGGGTYYADSVKGRFTISRDNAKNTVYLQMNSLKPEDTAVYYCARDRHVRWGLKMDYSGQGTQVTVSS | low polyreactivity
31 | QVQLVESGGGLVQAGGSLRLSCAASGSTFLGYTMGWYRQAPGKERELVASITNSGSTDYADSVKGRFTISRDNAKNTVYLHMNSLKPEDTAVYYCAAQFYRYPSKNDYWGQGTQVTVSS | high polyreactivity
32 | QVQLVESGGGLVPAGGSLRLSCAASGRTFRYYGMGWYRQAPGTERELLAAISWRGGSTNYADSVKGRFTISRDNAKNTVYLQMNSLKREDTAVYYCAVGTVYLTYRGYEYWGQGTQVTVSS | high polyreactivity
33 | QVQLVESGGGLVQAGGSLRLSCAASGSTFSLNDRGWYRQAPGKERELVAVISSSTGITYYADSVKGRFTISRDNAKYTVYLQMNSLKPEDTAVYYCNADKWEVYYTRMYYWGQGTQVTVSS | low polyreactivity
34 | QFQLVESGGGLVHAVGSLRLSCAASGRTGKNAMGWYRQAPGKERELVAAIRYNGGSTYYADSVKGRFTISRDNAKNSVYLQMNSLKPEDTAVYYCAAAFRRHNGSAFNYWGQGTQVTVSS | high polyreactivity
35 | QVQLVESGGGLVQAGGSLRLSCAASGGIFAPNAMGWYRQAPGKEREFVAAISTGGGSTRYADSVKGRFTISRDNAKNTVYLQMNSLKPEDTAVYYCAAELWYTWLGSPYDYWGQGTQVTVSS | low polyreactivity
36 | QVQLVESGGGLVQAGGSLRLSCAASGRIFNRYAMGWYRQAPGKERELVAAINYRGSSTYYADSVKGRFTISRDNAKNTGYLQMNSLKPEVTAVYYCKTYGQTDTYWRYYYWGQGTQVTVSS | high polyreactivity
37 | QVQLVDSGGGLVQAGGSLRLSCAASGSTFYWYPMGWYRQAPGKERELVAAISRSSGSTYYADSVKGRFTISRDNAKNTVYLQMNSLTPEDTAVYYCAADYYLRSFVWTAYDSWGHGTQVTVSS | high polyreactivity
38 | QVQLVESGGGLVQAGGSLRLSCAASGSTFETNAMGWYRQAPGTERELVAAIRWSTGNTYYADSVKGRFTISRDNAKNTVYLQMNSLKPEDTAVYYCAAYKGKHYNEGYWGQGTQVTVSS | low polyreactivity
39 | QVQLVESGGGLVQAGGSLSLSCAASGITLYWYAMRWYIQAPGKERELVATINWSGGSTYYADSVKGRFTISRDNAKNTVYLQMNSLKPEDTAVYYCNVDYSDEGMGYWGQGTQVTVSS | low polyreactivity
40 | QVQLVESGGGLVQAGGSLRLSCAASGFIFNIYAMGWYRQAPGKERELVAAITDDGSTNYADSVKGRFTISRDNAKNTVYLQMNSLKPEDTAVYYCAADDYYKFDYWGQGTQVTVSS | low polyreactivity
41 | QVQLVESGGGLVQAGGSLRLSSAASGSIFGSNAMGWYRQAPGKERELVATITTSGGITYYADSVKGRFTISRDTAKNTVYLQMNSLKPEDTAVYYCAAAEGGGLVTYDYWGQGTQVTVSS | low polyreactivity
42 | QFPLVESAGGLGQAGGTLRLTWAASGLSFGANTLGWYRHAPGKERELVAALTISGGITHYADSVKGRFTISRDNANNTVYVQIKSLQPEDTAVYYCAAGAYWRLYPYRQRNGGRMYYWGQGTQVTVSS | low polyreactivity
43 | QLQLVQSGGGLVQAGGSLRLSCAASGRIFFKYVKGWYRQAPGKERELVAAISSAGSTYYADSVKRRFTISRDNAKNTVYLQMNSLQPEDTAVYYCATYYSAINYGWSKTILYDYWGQGTQVTVSS | low polyreactivity

From the nanobody polyreactivity screen of Harvey et al. (2022)
